Experimental data: the supplement of paper PMC12042874
± gives the uncertainty stated by the source.

assay: amyloid nucleation score (Sup35N fusion, yeast selection) (log enrichment); library NNK3; higher = more nucleation; inactive = no reads after selection
How it was run: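 Plasmid inserts were Illumina-sequenced at input and output from psi-negative yeast expressing Sup35N fused to peptides of 20 random codons. The yeast were induced with 100 μM copper sulfate for 24 hours and grown 7 days at 30°C on medium lacking adenine and uracil, and sequences with under 100 input reads were excluded. Nucleation score is the DiMSum log enrichment of output over input reads, centred on the mode score of non-aggregating sequences.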

Substance | amyloid nucleation score
CHMCVVLAV | inactive
VLYSYRYSYSVGLCTEMHRF | inactive
LALFDRGTCRQSSVYSGEDS | inactive
KHRYAYGRRTNCWASHYLRG | inactive
NVCAVNFAWSITIWRYNY | inactive
ACMNSSSRSVMLLMCYYFSN | inactive
IYLLGMYIKACSG | inactive
WVDFFMFWGFAMNENKWFVH | inactive
ISPSYVQSDQFIGRTHVS | inactive
LTYGFFESNFGGCNRFCF | inactive
LIASGASIVFSRTESVRCNT | inactive
QSSMLHL | inactive
SIHLMWRQCYFSLLCVNKGM | inactive
DNATARLQTRNEWSMR | inactive
RLPRRSEDIKALRMDIRLYR | inactive
SWCLERHGTRWSEFNYGPSS | inactive
RVSSFMSLTVGRYGKLHRDS | inactive
VLGMNEPCSFW | inactive
IMMMNLKM | 1.92 ± 0.079
PCPSEFDLSGRYRAAWVRCS | inactive
TAMCQSLGPTATTLTGVSWG | inactive
SFLRIDVVWFSAFFGWSPFL | 0.357 ± 0.54
APRFRFQTVHRSFVRSRKLR | inactive
SREFSGCNNV | inactive
VLLFI | inactive
MGHHRCYVRVSKKDYWF | inactive
LFGARDVFFER | inactive

Substance | amyloid nucleation score
WVMCFVAWCSAFLRTNFIDM | inactive
TSKLRQCGFL | inactive
LASRRQMMWVVHRFLNGAVH | inactive
QNTGLYVN | inactive
LSVCVRPWRNKTDVVGNGNK | inactive
LTLCNPPTTRRTNATFLHCL | inactive
NGWYKVGLMA | inactive
MILLFVVAFILLTEYICWAI | 0.601 ± 0.18
YFFIPLMF | 0.725 ± 0.14
CLNNRSFNPKMQYPLVTMDH | inactive
IIAPSGVGWYWR | inactive
TIYFF | 1.27 ± 0.11
LGVRNDPQQSLPVQFGFELE | 0.041 ± 1.2
WASLGINR | inactive
PCECTNHLACDNIPMRYTE | inactive
SSARYPAGLIVLHWLGCLKA | inactive
HIVLVSRLHITAGGRF | -0.179 ± 0.65
IESKAWISVAGARFYSLGVG | inactive
RLFDLVYSGLVFRKHSHTAM | inactive
ILPFRWIVY | inactive
DMCNYAFDGLCIYNYVNVVG | inactive
PRTQSYECVYGYSLKRNWLA | inactive
YNMTLTYLRLLGAGSIISCL | inactive
SRTVKSRGSAQQDCGRVLRD | inactive
LVMPYDMCCTRFQRAFSVCC | inactive
VQSKMCVKYFWGRHTRHQLG | inactive
FMVGR | inactive

Substance | amyloid nucleation score
PRGWWPMGFSCGYFVFALTP | inactive
SDQSCGDIMMELFWQM | inactive
LQYHRLGQLPRQNRDTVLLL | inactive
LLCLVAKRYGMGRLF | inactive
FNIMVYCNESSL | inactive
RPSSLIYFSSPNTRHGSPTL | inactive
QLCVISWLGR | 1.14 ± 0.15
NCIAFGWLWSELRN | inactive
YRNSC | inactive
KDLYIIIITRMYRIFKS | inactive
ILYFDVTISV | inactive
LICYLYAKMC | inactive
HHAVYIVVRMADKACDWGCC | 1.84 ± 0.078
ASVRSGYDMVGFGILFGQMS | inactive
LNLSYGM | inactive
HFQCLMSVRSGSNQTRDILL | 1.28 ± 0.15
VCGIYYVFLAGWEHKSRSKE | 1.86 ± 0.089
MTRVNFYFLFFELLLMAFGV | inactive
KGMFLVMSRLCPFISWSRSQ | inactive
HITVNRSKGFDGSRTAPFQM | inactive
DRMKATVQLDFG | inactive
LMASWTVRTYHGFSISENRN | 0.312 ± 0.26
SCGSSH | inactive
HVGAIMLLLLLTSERLMTLD | inactive
CSRFIREADTWRNRDYWWVF | -0.349 ± 1.2
LLDVYLD | inactive
